Data as given in patent CN111592595A (UNIV NANJING MEDICAL, dated 2020).

What was measured:
SARS-Cov-2-RBD-his蛋白 = SARS-Cov-2-RBD-his蛋白 (SARS-Cov-2, UniProt P0DTC2 319-541)
[1] = biological target: SARS-Cov-2 spike (on lentiviral pseudovirus) (SARS-Cov-2, UniProt P0DTC2 14-1273); test: cell-based or functional assay
SARS-Cov-1-RBD-hFc蛋白 = biological target: T1, SARS-Cov-1-RBD-hFc蛋白 (SARS-Cov-1, UniProt P59594 306-527); test: phage ELISA on coated antigen, anti-M13-HRP detection
T1 construct: domain: RBD

Row | Binder | Kd (SARS-Cov-2-RBD-his蛋白) [nM] | IC50 of inhibition of pseudovirus infection of ACE2-CHO cells (Luciferase活性) [1] [µg/mL] | binding result (SARS-Cov-1-RBD-hFc蛋白)
1 | 4A3 IgG重组蛋白 (human IgG1) (antibody, V domains shown) VH: EVQLLESGGGLVQPGGSLRLSCAASGFTFSSYAMSWVRQAPGKGLEWVSSIASSGYYTDYADSVKGRFTISRDNSKNTLYLQMNSLRAEDTAVYYCAKDADSFDYWGQGTLVTVSS VL: DIQMTQSPSSLSASVGDRVTITCRASQSISSYLNWYQQKPGKAPKLLIYAASYLQSGVPSRFSGSGSGTDFTLTISSLQPEDFATYYCQQAYSAPSTFGQGTKVEIK | 3.62 | 0.28 | –
2 | 4A3噬菌体 (4A3 scFv displayed on phage) (scFv, also called 4A3抗体; 4A3的噬菌体) scFv: EVQLLESGGGLVQPGGSLRLSCAASGFTFSSYAMSWVRQAPGKGLEWVSSIASSGYYTDYADSVKGRFTISRDNSKNTLYLQMNSLRAEDTAVYYCAKDADSFDYWGQGTLVTVSSGGGGSGGGGSGGGGSDIQMTQSPSSLSASVGDRVTITCRASQSISSYLNWYQQKPGKAPKLLIYAASYLQSGVPSRFSGSGSGTDFTLTISSLQPEDFATYYCQQAYSAPSTFGQGTKVEIK | – | – | no binding (tested: 5μg/ml coating)
